Measured values published in patent US20160257757A1.

What was measured:
[1] = target: full-length mouse GCGR (mouse) (UniProt Q61606); experiment: cell-based or functional assay
[2] = target: full-length rat GCGR transiently expressed on HEK293 reporter cells (rat) (UniProt P30082); experiment: cell-based or functional assay
full-length rat GCGR transiently expressed on HEK293 reporter cells (rat), sequence (P30082 27-485 limits assumed): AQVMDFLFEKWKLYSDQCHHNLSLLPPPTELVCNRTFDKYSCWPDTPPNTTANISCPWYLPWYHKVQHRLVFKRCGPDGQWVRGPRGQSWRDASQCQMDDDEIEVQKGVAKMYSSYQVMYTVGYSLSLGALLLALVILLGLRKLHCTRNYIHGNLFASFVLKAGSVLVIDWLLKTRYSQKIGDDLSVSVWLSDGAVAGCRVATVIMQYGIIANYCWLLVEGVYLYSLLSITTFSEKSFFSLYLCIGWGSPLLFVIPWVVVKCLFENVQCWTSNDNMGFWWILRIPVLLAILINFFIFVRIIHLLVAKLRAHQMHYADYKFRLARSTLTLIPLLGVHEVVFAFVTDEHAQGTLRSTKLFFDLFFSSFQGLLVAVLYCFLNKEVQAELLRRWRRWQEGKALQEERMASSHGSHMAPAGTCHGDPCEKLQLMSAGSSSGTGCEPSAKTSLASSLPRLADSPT

full-length mouse GCGR (mouse), sequence (Q61606 27-485 limits assumed): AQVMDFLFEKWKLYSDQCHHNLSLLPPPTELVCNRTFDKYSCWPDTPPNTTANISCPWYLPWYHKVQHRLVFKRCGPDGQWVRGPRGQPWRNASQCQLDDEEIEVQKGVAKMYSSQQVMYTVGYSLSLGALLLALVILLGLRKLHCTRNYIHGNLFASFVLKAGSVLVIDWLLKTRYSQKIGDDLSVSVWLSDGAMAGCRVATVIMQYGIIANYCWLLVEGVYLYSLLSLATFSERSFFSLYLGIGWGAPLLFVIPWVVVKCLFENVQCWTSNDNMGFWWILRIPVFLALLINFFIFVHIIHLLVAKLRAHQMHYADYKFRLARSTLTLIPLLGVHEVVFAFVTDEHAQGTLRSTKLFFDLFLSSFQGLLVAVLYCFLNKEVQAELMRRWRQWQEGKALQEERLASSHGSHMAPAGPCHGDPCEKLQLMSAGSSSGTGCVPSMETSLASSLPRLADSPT

- EC50 of luciferase (cAMP/CRE reporter) stimulation in HEK293/GCGR cells [1]: 83 pM
- EC50 of luciferase (cAMP/CRE reporter) stimulation in HEK293/GCGR cells [2]: 252 pM
Substance: glucagon (from UniProt P01275 53-81) (ligand)
